Here are results for five sequences from the Immune Epitope Database (IEDB).

A value given as a limit tells only on which side of the number the result lay.

One assay has as its target HLA-A*24:02. Put plainly: IEDB peptide-MHC binding, purified MHC/direct/fluorescence; filed as Kd, often an IC50 or EC50 that approximates it; ≥ and ≤ were set here for values at or beyond the usual limits of such assays.
Assay [1] concerns the target HLA-B*07:02. The assay is described as above.
In another assay the target is HLA-B*27:05. The assay is described as above.
The target in assay [2] is HLA-B*08:01. The assay is described as above.
In another assay the target is HLA-A*01:01. The assay is described as above.
A further assay concerns the target HLA-C*12:03. Described as above. The conditions noted are these: source organism: Vaccinia virus Tian Tan.
Assay [3] addresses HLA-A*31:01. The assay is described as above.
Assay [4] has as its target HLA-A*02:01. The description is as above.
Another assay addresses HLA-A*69:01. The assay is described as above.
The target in another assay is HLA-A*03:01. The description is as above.
The next assay has as its target HLA-B*48:01. The description is as above.
The target in another assay is HLA-B*40:01. The description is as above.
The next assay addresses HLA-A*11:01. Described as above.
In the next assay the target is HLA-B*08:03. The description is as above.
For another assay, the target named is HLA-B*58:01. The assay is described as above.
Assay [5] concerns the target HLA-A*30:01. The experiment in a line: IEDB peptide-MHC binding, purified MHC/competitive/radioactivity; filed as Kd, often an IC50 or EC50 that approximates it; ≥ and ≤ were set here for values at or beyond the usual limits of such assays. The conditions noted are these: source organism: Vaccinia virus WR.
The target of assay [6] is HLA-B*15:01. The experiment in a line: IEDB peptide-MHC binding, purified MHC/competitive/fluorescence; filed as Kd, often an IC50 or EC50 that approximates it; ≥ and ≤ were set here for values at or beyond the usual limits of such assays.
Another assay has as its target HLA-B*35:01. The assay is described as above. The note with it: source organism: Vaccinia virus Tian Tan.
The target in a further assay is HLA-A*68:02. Described as above.
Assay [7] addresses HLA-B*18:01. Described as above. The note with it: source organism: Vaccinia virus Tian Tan.
Assay [8] addresses HLA-A*26:01. Described as above. The note with it: source organism: Vaccinia virus Tian Tan.
In assay [9] the target is HLA-B*15:17. Described as above.
For another assay, the target named is HLA-A*26:03. Described as above.
A further assay deals with HLA-A*02:06. Described as above. The note with it: source organism: Vaccinia virus Tian Tan.
In assay [10] the target is HLA-B*18:01. The experiment in a line: IEDB peptide-MHC binding, purified MHC/direct/fluorescence; filed as Kd, often an IC50 or EC50 that approximates it; ≥ and ≤ were set here for values at or beyond the usual limits of such assays.
The target in assay [11] is HLA-A*26:01. Described as above. The note with it: source organism: Mycobacterium tuberculosis C.
The next assay has as its target HLA-B*08:02. The assay is described as above.
For assay [12], the target named is HLA-B*57:01. Described as above. The conditions noted are these: source organism: Mycobacterium tuberculosis.
Assay [13] addresses HLA-B*15:17. Described as above. The note with it: source organism: Mycobacterium tuberculosis.
The next assay deals with HLA-B*46:01. Described as above. The note with it: source organism: Mycobacterium tuberculosis.
In assay [14] the target is HLA-A*30:01. Put plainly: IEDB peptide-MHC binding, purified MHC/competitive/fluorescence; filed as Kd, often an IC50 or EC50 that approximates it; ≥ and ≤ were set here for values at or beyond the usual limits of such assays. The note with it: source organism: Mycobacterium tuberculosis C.
The target of assay [15] is HLA-B*07:02. The description is as above. The note with it: source organism: Mycobacterium tuberculosis C.
The target in assay [16] is HLA-B*08:01. The description is as above. The note with it: source organism: Mycobacterium tuberculosis C.
The target of assay [17] is HLA-B*15:01. The experiment in a line: IEDB peptide-MHC binding, purified MHC/direct/fluorescence; filed as Kd, often an IC50 or EC50 that approximates it; ≥ and ≤ were set here for values at or beyond the usual limits of such assays.
The target of another assay is HLA-A*24:03. The assay is described as above. The note with it: source organism: Francisella tularensis subsp. holarctica LVS.
Another assay deals with HLA-B*15:09. The assay is described as above. The conditions noted are these: source organism: Francisella tularensis subsp. tularensis FSC033.
The next assay concerns the target HLA-A*26:02. Put plainly: IEDB peptide-MHC binding, purified MHC/competitive/fluorescence; filed as Kd, often an IC50 or EC50 that approximates it; ≥ and ≤ were set here for values at or beyond the usual limits of such assays. The note with it: source organism: Francisella tularensis subsp. tularensis FSC198.
Assay [18] deals with HLA-A*31:01. Described as above. The conditions noted are these: source organism: Francisella tularensis subsp. tularensis FSC198.
Assay [19] concerns the target HLA-A*02:01. The description is as above. The conditions noted are these: source organism: Francisella tularensis subsp. tularensis FSC198.
In assay [20] the target is HLA-B*57:01. The assay is described as above. The conditions noted are these: source organism: Francisella tularensis subsp. tularensis FSC198.
The target in a further assay is HLA-B*44:02. The experiment in a line: IEDB peptide-MHC binding, purified MHC/direct/fluorescence; filed as Kd, often an IC50 or EC50 that approximates it; ≥ and ≤ were set here for values at or beyond the usual limits of such assays. The conditions noted are these: source organism: Shigella flexneri.
[21] abbreviates: source organism: Camelpox virus CMS.
[22] abbreviates: source organism: Vaccinia virus Tian Tan.
The mark [23] stands for this setting: source organism: Mycobacterium tuberculosis.
The mark [24] stands for this setting: source organism: Mycobacterium tuberculosis C.
[25] abbreviates: source organism: Francisella tularensis subsp. holarctica LVS.
The mark [26] stands for this setting: source organism: Francisella tularensis subsp. tularensis FSC033.
Setting [27] is: source organism: Francisella tularensis subsp. tularensis FSC198.
Where [28] appears, read: source organism: Shigella flexneri.

A word on the Kd: it is the constant that tells how readily two partners part at equilibrium. Sequence RYLNIYQLW came in with a dissociation constant (Kd) with HLA-A*24:02 (source organism: Cryptosporidium parvum Iowa II) of 2 nM.
As for KVFFGPIYY, the Kd with HLA-B*07:02 [1] (setting [21]) was not below 20 µM; with HLA-B*27:05 (setting [21]), not below 20 µM; with HLA-B*08:01 [2] (source organism: Variola virus) it was not below 20 µM; with HLA-A*01:01 (setting [21]), not below 20 µM; with HLA-C*12:03, 45 nM; with HLA-A*31:01 [3] (setting [21]), 1290 nM. Further, the Kd with HLA-A*02:01 [4] (setting [21]) was not below 20 µM; in the assay with HLA-A*69:01 (setting [21]), not below 20 µM; in the assay with HLA-A*03:01 (setting [21]), 29 nM; with HLA-B*48:01 (setting [21]) it was not below 20 µM; in the assay with HLA-B*40:01 (setting [21]) it was not below 20 µM; in the assay with HLA-A*11:01 (setting [21]), 22 nM. In addition, the dissociation constant (Kd) with HLA-B*08:03 (source organism: Variola virus) is not below 20 µM; with HLA-B*58:01 (setting [21]) it was 21 nM; with HLA-A*30:01 [5], 154 nM; with HLA-B*15:01 [6] (setting [22]), 423 nM; in the assay with HLA-B*35:01, 333 nM; with HLA-A*68:02 (setting [22]), not below 20 µM. The Kd with HLA-B*18:01 [7] was not below 20 µM; in the assay with HLA-A*26:01 [8] it was 3000 nM; with HLA-B*15:17 [9] (setting [22]), 21.6 nM; with HLA-A*26:03 (setting [22]), not below 20 µM; with HLA-A*02:06 it was 1800 nM.
For the sequence TIHLATAPK, the dissociation constant Kd was not below 20 µM with HLA-B*27:05 (setting [23]); not below 20 µM with HLA-A*01:01 (setting [23]); 653 nM in the assay with HLA-A*31:01 [3] (setting [23]); not below 20 µM with HLA-B*18:01 [10] (setting [23]); not below 20 µM with HLA-A*26:01 [11]; not below 20 µM in the assay with HLA-B*08:02 (setting [24]). Further, the Kd was not below 20 µM with HLA-B*57:01 [12]; 2.33 µM with HLA-A*69:01 (setting [23]); not below 20 µM with HLA-B*15:17 [13]; not below 20 µM with HLA-B*46:01; not below 20 µM with HLA-B*48:01 (setting [23]); not below 20 µM with HLA-B*40:01 (setting [23]). For the same sequence, the Kd is 8.7 nM with HLA-A*11:01 (setting [23]); not below 20 µM in the assay with HLA-B*08:03 (setting [24]); not below 20000 nM in the assay with HLA-B*58:01 (setting [23]); not below 20000 nM with HLA-B*15:01 [6] (setting [24]); 0.2 nM with HLA-A*30:01 [14]; not below 20 µM with HLA-B*07:02 [15]. Also, the results for the dissociation constant Kd with HLA-B*08:01 [16], with HLA-A*68:02 (setting [24]) and with HLA-A*26:03 (setting [24]) were not below 20 µM, 0.76 µM and not below 20 µM, respectively.
Take IYTVIYYIF: the Kd in the assay with HLA-B*15:01 [17] (setting [25]) was not below 20000 nM; with HLA-B*07:02 [1] (setting [25]), not below 20 µM; in the assay with HLA-B*08:01 [2] (setting [26]), not below 20 µM; in the assay with HLA-A*01:01 (setting [25]), not below 20 µM; with HLA-B*18:01 [10] (setting [26]), 8.93 µM; in the assay with HLA-A*24:03 it was 270 nM. Further, the Kd with HLA-B*08:02 (setting [26]) was not below 20 µM; with HLA-B*15:09, not below 20 µM; in the assay with HLA-A*11:01 (setting [25]) it was not below 20000 nM; with HLA-B*58:01 (setting [26]), 150 nM; with HLA-A*26:02, 1130 nM; with HLA-A*68:02 (setting [27]), 3.96 µM. Further, the Kd with HLA-A*31:01 [18] is not below 20 µM; with HLA-A*02:01 [19], not below 20 µM; with HLA-B*57:01 [20], not below 20 µM; in the assay with HLA-B*15:17 [9] (setting [27]), 439 nM; with HLA-A*26:03 (setting [27]) it was not below 20 µM.
On to LSSIGIPAY, for which the dissociation constant (Kd) in the assay with HLA-B*15:01 [17] (setting [28]) was 304 nM; with HLA-B*07:02 [1] (setting [28]) it was not below 20 µM; with HLA-B*27:05 (setting [28]), not below 20 µM; with HLA-A*01:01 (setting [28]), 0.366 µM; with HLA-A*31:01 [3] (setting [28]) it was not below 20000 nM; in the assay with HLA-A*02:01 [4] (setting [28]), not below 20 µM. Besides, the equilibrium dissociation constant (Kd) with HLA-A*24:02 (setting [28]) was not below 20000 nM; with HLA-B*44:02, not below 20 µM; with HLA-A*69:01 (setting [28]), not below 20 µM; in the assay with HLA-A*03:01 (setting [28]) it was not below 20000 nM; with HLA-B*40:01 (setting [28]), not below 20 µM; with HLA-A*11:01 (setting [28]), not below 20000 nM. Also, in the assay with HLA-B*58:01 (setting [28]), the Kd is 178 nM.
